According to publication PMC10127204, “Unique Initiation and Termination Mechanisms Involved in the Biosynthesis of a Hybrid Polyketide-Nonribosomal Peptide Lyngbyapeptin B Produced by the Marine Cyanobacterium Moorena bouillonii” (ACS Chemical Biology, 2023):

How the values were obtained:
Assay type in all cases: biochemical, Moorena bouillonii
Conditions in all cases: Fe2+ and molecular oxygen required
[1] = substrate: CC1=N[C@H](C(=O)O)CS1; assay: kinetic analysis of 2-methylthiazole formation
[2] = substrate: CC1=N[C@@H](C(=O)O)CS1; assay: kinetic analysis of 2-methylthiazole formation
[3] = substrate: O=C(O)[C@@H]1CSC(c2ccccc2)=N1; assay: kinetic analysis of 2-phenylthiazole formation

B1: LynB7 (Moorena bouillonii) (protein)
chain: MVKTYEIIDADSHVLEPLDLWEKYLEPEFKHFAPKEDYKLEGEPILYKFNPSDFVESEAAKRAQEDPDIYKGGYDPKARVELMEQMGSDMTFLYPTIGLWMWSVDTMDSKLAGAFVRSYNNWLHDFCNYAPQKLKGIGAINQHDPEEMVPELQRIVEFGWKAVFIRPNPVKGRILSDPVYEPFWSECERLNVAVTVHEGTHSRLPTTGADRFDSRFALHACSHPMEQMMALLALIEGGVLERHPQLRVGFFESGCGWLPYWLWRLDEEYENLYYEVKDNVKMKPSEYFHRQCYTGFEVDEPYLAELIEYIGADKLLFGSDFPHMDHPNFIESVDETLALREKLPEDVIKKILHDNPLRYYGLT
B1 gave a Km [1] of 2100 ± 200 µM, a kcat [1] of 17 ± 0.7 s^–1 and a Km [2] of 3600 ± 700 µM. For the same protein, the kcat [2] was 1.3 ± 0.1 s^–1, the Km [3] was 1500 ± 300 µM and the kcat [3] was 11 ± 0.5 s^–1.
